Data set [1] concerns HeLa Kyoto. The data set can be described thus: solubility in G1/S (NP-40 vs SDS abundance) (log2 ratio); higher = more soluble. Particulars: cell cycle stage: G1/S.
Data set [2] relates to HeLa Kyoto. The data set can be described thus: melting temperature (median over replicates), in situ; higher = more thermally stable.
Data set [3] deals with HeLa Kyoto. Description: solubility change mitosis vs G1/S (difference of NP-40 vs SDS log2 ratios) (log2 ratio difference); higher = more soluble in mitosis.
Data set [4] deals with HeLa Kyoto. Description: thermal stability score vs G1/S (z-score of summed log2 fold changes over temperatures); higher = more thermally stable than in G1/S.
Setting [5] is: cell cycle stage: early G1 (4.5 h after nocodazole release).

Results on 4 sequences are retold here after the supplement of paper PMC5998384.
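Wherever melting temperature (median over replicates), in situ is given: HeLa Kyoto cells synchronized by double thymidine or nocodazole block, proteins quantified by TMT10plex mass spectrometry, three independent biological replicates.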
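Wherever solubility change mitosis vs G1/S (difference of NP-40 vs SDS log2 ratios) is given: synchronized HeLa Kyoto cells (double thymidine block for G1/S, nocodazole release for mitosis), protein amounts in NP-40 versus SDS lysates quantified by mass spectrometry, three biological replicates.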
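Wherever solubility in G1/S (NP-40 vs SDS abundance) is given: HeLa Kyoto cells arrested at G1/S by double thymidine block, proteins quantified by TMT10plex mass spectrometry in mild NP-40 versus SDS extracts, three biological replicates.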
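Wherever thermal stability score vs G1/S (z-score of summed log2 fold changes over temperatures) is given: synchronized HeLa Kyoto cells, proteins quantified by TMT10plex mass spectrometry, three biological replicates, mitosis taken 0.5 h after nocodazole release, G1/S directly after double thymidine block.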

For “MNLLPKSSREFGSVDYWEKFFQQRGKKAFEWYGTYLELCGVLHKYIKPREKVLVIGCGNSELSEQLYDVGYRDIVNIDISEVVIKQMKECNATRRPQMSFLKMDMTQMEFPDASFQVVLDKGTLDAVLTDEEEKTLQQVDRMLAEVGRVLQVGGRYLCISLAQAHILKKAVGHFSREGWMVRVHQVANSQDQVLEAEPQFSLPVFAFIMTKFRPVPGSALQIFELCAQEQRKPVRLESAERLAEAVQERQQYAWLCSQLRRKARLGSVSLDLCDGDTGEPRYTLHVVDSPTVKPSRDNHFAIFIIPQGRETEWLFGMDEGRKQLAASAGFRRLITVALHRGQQYESMDHIQAELSARVMELAPAGMPTQQQVPFLSVGGDIGVRTVQHQDCSPLSGDYVIEDVQGDDKRYFRRLIFLSNRNVVQSEARLLKDVSHKAQKKRKKDRKKQRPADAEDLPAAPGQSIDKSYLCCEHHKAMIAGLALLRNPELLLEIPLALLVVGLGGGSLPLFVHDHFPKSCIDAVEIDPSMLEVATQWFGFSQSDRMKVHIADGLDYIASLAGGGEARPCYDVIMFDVDSKDPTLGMSCPPPAFVEQSFLQKVKSILTPEGVFILNLVCRDLGLKDSVLAGLKAVFPLLYVRRIEGEVNEILFCQLHPEQKLATPELLETAQALERTLRKPGRGWDDTYVLSDMLKTVKIV [METTL13]”, the “solubility in G1/S (log2)” value with HeLa Kyoto [1] is -0.167. Further, the melting temperature in the data set on HeLa Kyoto [2] (cell cycle stage: G1/S) was 49.3 °C; in the data set with HeLa Kyoto [2] (cell cycle stage: mitosis) it was 48.9 °C. Further, in the data set with HeLa Kyoto [3], the “solubility change mitosis (log2)” value is -0.0232. Further, the thermal stability score came to 0.527 in the data set with HeLa Kyoto [4] (setting [5]) and 1.18 in the data set with HeLa Kyoto [4] (cell cycle stage: mitosis).
With “MNMTQARVLVAAVVGLVAVLLYASIHKIEEGHLAVYYRGGALLTSPSGPGYHIMLPFITTFRSVQTTLQTDEVKNVPCGTSGGVMIYIDRIEVVNMLAPYAVFDIVRNYTADYDKTLIFNKIHHELNQFCSAHTLQEVYIELFDQIDENLKQALQKDLNLMAPGLTIQAVRVTKPKIPEAIRRNFELMEAEKTKLLIAAQKQKVVEKEAETERKKAVIEAEKIAQVAKIRFQQKVMEKETEKRISEIEDAAFLAREKAKADAEYYAAHKYATSNKHKLTPEYLELKKYQAIASNSKIYFGSNIPNMFVDSSCALKYSDIRTGRESSLPSKEALEPSGENVIQNKESTG [ERLIN1]”, the “solubility in G1/S (log2)” value with HeLa Kyoto [1] amounted to 0.24. Further, the melting temperature came out at 52.7 °C in the data set on HeLa Kyoto [2] (cell cycle stage: G1/S) and 53.1 °C in the data set with HeLa Kyoto [2] (cell cycle stage: mitosis). Further, the “solubility change mitosis (log2)” value in the data set on HeLa Kyoto [3] is -0.0762. The thermal stability score in the data set on HeLa Kyoto [4] (setting [5]) is 1.82; in the data set on HeLa Kyoto [4] (cell cycle stage: mitosis), 4.38.
For “MNNHVSSKPSTMKLKHTINPILLYFIHFLISLYTILTYIPFYFFSESRQEKSNRIKAKPVNSKPDSAYRSVNSLDGLASVLYPGCDTLDKVFTYAKNKFKNKRLLGTREVLNEEDEVQPNGKIFKKVILGQYNWLSYEDVFVRAFNFGNGLQMLGQKPKTNIAIFCETRAEWMIAAQACFMYNFQLVTLYATLGGPAIVHALNETEVTNIITSKELLQTKLKDIVSLVPRLRHIITVDGKPPTWSEFPKGIIVHTMAAVEALGAKASMENQPHSKPLPSDIAVIMYTSGSTGLPKGVMISHSNIIAGITGMAERIPELGEEDVYIGYLPLAHVLELSAELVCLSHGCRIGYSSPQTLADQSSKIKKGSKGDTSMLKPTLMAAVPEIMDRIYKNVMNKVSEMSSFQRNLFILAYNYKMEQISKGRNTPLCDSFVFRKVRSLLGGNIRLLLCGGAPLSATTQRFMNICFCCPVGQGYGLTESAGAGTISEVWDYNTGRVGAPLVCCEIKLKNWEEGGYFNTDKPHPRGEILIGGQSVTMGYYKNEAKTKADFFEDENGQRWLCTGDIGEFEPDGCLKIIDRKKDLVKLQAGEYVSLGKVEAALKNLPLVDNICAYANSYHSYVIGFVVPNQKELTELARKKGLKGTWEELCNSCEMENEVLKVLSEAAISASLEKFEIPVKIRLSPEPWTPETGLVTDAFKLKRKELKTHYQADIERMYGRK [ACSL3]”, the “solubility in G1/S (log2)” value in the data set on HeLa Kyoto [1] was -0.101. In addition, the results for the melting temperature with HeLa Kyoto [2] (cell cycle stage: G1/S) and in the data set with HeLa Kyoto [2] (cell cycle stage: mitosis) were 50.7 °C and 51.2 °C, respectively. Besides, the “solubility change mitosis (log2)” value with HeLa Kyoto [3] was -0.129. Further, the thermal stability score came to 1.86 with HeLa Kyoto [4] (setting [5]) and 3.88 in the data set with HeLa Kyoto [4] (cell cycle stage: mitosis).
For the sequence “MNNLSFSELCCLFCCPPCPGKIASKLAFLPPDPTYTLMCDESGSRWTLHLSERADWQYSSREKDAIECFMTRTSKGNRIACMFVRCSPNAKYTLLFSHGNAVDLGQMSSFYIGLGSRINCNIFSYDYSGYGASSGKPTEKNLYADIEAAWLALRTRYGIRPENVIIYGQSIGTVPSVDLAARYESAAVILHSPLTSGMRVAFPDTKKTYCFDAFPNIDKISKITSPVLIIHGTEDEVIDFSHGLALFERCQRPVEPLWVEGAGHNDVELYGQYLERLKQFVSQELVNL [ABHD17B]”, the “solubility in G1/S (log2)” value with HeLa Kyoto [1] amounted to 0.0257. Moreover, the melting temperature came to 54.9 °C in the data set on HeLa Kyoto [2] (cell cycle stage: G1/S) and 54.3 °C with HeLa Kyoto [2] (cell cycle stage: mitosis). Further, the “solubility change mitosis (log2)” value with HeLa Kyoto [3] is -0.163. For the same sequence, the thermal stability score in the data set with HeLa Kyoto [4] (setting [5]) was -2.83; in the data set on HeLa Kyoto [4] (cell cycle stage: mitosis), -2.95.
